The values below come from patent US20060063701A1 (INSTITUTE FOR PROTEIN SCIENCE, published 2006).

For one experiment, the target named is T1, recombinant human C5a (human, UniProt P01031 678-751).
T1 construct: domain: C5a anaphylatoxin (74-amino acid peptide); The calcium assay names recombinant human C5a; The SPR section says only 'C5a'; C5a is a 74-residue fragment of it; also called RhC5a; C5a anaphylatoxin
T1 sequence (looked up): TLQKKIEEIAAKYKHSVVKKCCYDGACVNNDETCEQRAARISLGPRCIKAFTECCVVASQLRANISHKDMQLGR
In words: SPR (Biacore), C5a amine-coupled to CM5 chip, peptide as analyte. On the procedure: (§1) FIG. 1. Binding of C-peptides to immobilized PL37-MAP and C5a using Biacore equipment. An overlay plot of response curves obtained from the Biacore instrument when various concentrations of Pep-A and Pep-B were injected. All samples were injected at time 0, and the association was monitored as an increase in RU. a, Various concentrations of Pep-A were injected over the PL37-MAP-coupled flow cell. b, The same concentrations of Pep-B were also injected over the PL37-MAP-coupled flow cell. c, Pep-A was injected over the C5a-coupled flow cell at the same concentrations of Pep-A as in FIG. 1a. d, The same concentrations of Pep-B were also injected over the C5a-coupled flow cell.
(§2) Binding interactions between PL37 or C5a with C-peptides were evaluated using surface plasmon resonance (SPR) technology with the Biacore system. PL37 and C5a were covalently immobilized on the CM5 sensor chip by amine coupling methods using N-ethyl-N-(dimethylaminopropyl)carbodiimide/N-hydroxysuccinimide (EDC/NHS) according to the manufacturer's instructions. […] Binding interactions were determined by passing samples simultaneously over both the EA-blocked cell and the flow cell with immobilized PL37 or C5a so as to obtain units of resonance response (RU) by subtraction of the background using Biacore software (BIA evaluation).

Experiment [1] concerns the target T2, PL37 in multiple antigenic peptide form (human, also: multiple antigenic peptide form, core and copy number not given here, abstract and print the sequence differently).
T2 construct: PL37 is the fragment aa 37-53 of C5a anaphylatoxin; The assays used the MAP form; its core and valency are not described; also called PL37-MAP
T2 peptide: RAARISLGPRCIKAFTE
Kind of experiment: SPR (Biacore), PL37-MAP amine-coupled to CM5 chip, peptide as analyte. On the procedure:
as §1
as §2, with “evaluation). […]” for “evaluation).”
Background: In SPR one partner is held on a chip, and binding of the other changes the refractive index at the surface.

Ends that are not written are not given here.

B1: Peptide-B (peptide)
peptide: ASTAPARAGLPRLPKFF
notes: Synthetic 17-residue complementary peptide designed with MIMETIC against PL37; also called Pep-B; C-peptide B
As for B1, the binding result (with recombinant human C5a; in experiment [1]) was “no binding” throughout.
